Results as given in patent publication US20210380703A1 (RIGEL PHARMACEUTICALS, published 2021).

Columns and labels:
Human ACVR2A = molecular target: T1, Human ACVR2A (human, UniProt P27037 20-135, limits assumed); assay: ELISA
T1 construct: also called activin receptor, type II A
In short: (§1)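 mAb binding by ELISA; antigens: hu ACVR2A, mu ACVR2A; pos ctrl biotinylated goat anti-hu kappa LC; neg ctrl hu Fc.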

Mouse ACVR2A = Mouse ACVR2A (mouse, UniProt P27038 20-135, limits assumed); assay: ELISA
In short: as §1

Goat anti-Human Kappa = molecular target: T2, Goat anti-Human Kappa; assay: ELISA, positive control
T2 construct: Positive control of the ELISA; also called biotinylated goat anti-human kappa light chain
In short: as §1
Also: test concentration or dose not given here.

T1 sequence (P27037 20-135 limits assumed): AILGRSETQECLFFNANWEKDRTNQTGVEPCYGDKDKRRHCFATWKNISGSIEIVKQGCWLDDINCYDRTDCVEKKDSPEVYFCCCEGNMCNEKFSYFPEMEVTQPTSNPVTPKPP
Chain of Mouse ACVR2A (P27038 20-135 limits assumed): as the sequence (P27037 20-135 limits assumed) above, with K20R, V73I counted along it

Row | Binder | optical density (Human ACVR2A) | optical density (Mouse ACVR2A) | optical density (Goat anti-Human Kappa)
1 | 373_A02 (antibody, V domains shown) VH: EVQLLESGGGLVQPGGSLRLSCAASGFTFDSYGMNWVRQAPGKGLEWVSGINYNGGYKGYADSVKGRFTISRDNSKNTLYLQMNSLRAEDTAVYYCARSANWHDTALDYWGQGTLVTVSS VL: DIQMTQSPSSLSASVGDRVTITCRASQSILSYVNWYQQKPGKAPKLVIYATTSLASGVPSRFSGSGSGTDFTLTISSLQPEDFATYYCQQSYNTPLTFGGGTKVEIK | 2.8 OD | 2.97 OD | 2.96 OD
2 | 373_A08 (antibody, V domains shown) VH: EVQLLESGGGLVQPGGSLRLSCAASGFTFDSYGMNWVRQAPGKGLEWVSNINYNGGYTGYADSVKGRFTISRDNSKNTLYLQMNSLRAEDTAVYYCARSANWHDTALDYWGQGTLVTVSS VL: DIQMTQSPSSLSASVGDRVTITCRASQSIVSYVNWYQQKPGKAPKLLIYAATSLASGVPSRFSGSGSGTDFTLTISSLQPEDFATYYCQQSYSLPLTFGGGTKVEIK | 3.3 OD | 3.31 OD | 3.11 OD
3 | 373_D04 (antibody, V domains shown) VH: EVQLLESGGGLVQPGGSLRLSCAASGFTFDSYSMNWVRQAPGKGLEWVSGINYNSGYKGYADSVKGRFTISRDNSKNTLYLQMNSLRAEDTAVYYCARSANWHDTALDYWGQGTLVTVSS VL: DIQMTQSPSSLSASVGDRVTITCRASQSILSYLNWYQQKPGKAPKLLIYAATSRHSGVPSRFSGSGSGTDFTLTISSLQPEDFATYYCQQSYDSPLTFGGGTKVEIK | 3.68 OD | 3.65 OD | 3.15 OD
4 | 373_C06 (antibody, V domains shown) VH: EVQLLESGGGLVQPGGSLRLSCAASGFTFSSYSMNWVRQAPGKGLEWVAGINYNGGYTGYADSVKGRFTISRDNSKNTLYLQMNSLRAEDTAVYYCARSANWHDTALDYWGQGTLVTVSS VL: DIQMTQSPSSLSASVGDRVTITCRASQSIVSYVNWYQQKPGKAPKLVIYAATSRASGVPSRFSGSGSGTDFTLTISSLQPEDFATYYCQQSYDTPLTFGGGTKVEIK | 3.54 OD | 3.53 OD | 3.16 OD
5 | 373_E07 (antibody, V domains shown) VH: EVQLLESGGGLVQPGGSLRLSCAASGFTFSSYGMNWVRQAPGKGLEWVANINYNGGYTSYADSVKGRFTISRDNSKNTLYLQMNSLRAEDTAVYYCARSANWHDTALDYWGQGTLVTVSS VL: DIQMTQSPSSLSASVGDRVTITCRASQSILTYVNWYQQKPGKAPKLLIYAATSLASGVPSRFSGSGSGTDFTLTISSLQPEDFATYYCQQSYETPLTFGGGTKVEIK | 3.48 OD | 3.54 OD | 3.23 OD
6 | 373_B04 (antibody, V domains shown) VH: EVQLLESGGGLVQPGGSLRLSCAASGFTFSSYGMNWVRQAPGKGLEWVAGINYNSGYKGYADSVKGRFTISRDNSKNTLYLQMNSLRAEDTAVYYCARSANWHDTALDYWGQGTLVTVSS VL: DIQMTQSPSSLSASVGDRVTITCRASQSILTYLNWYQQKPGKAPKLLIYAATSRASGVPSRFSGSGSGTDFTLTISSLQPEDFATYYCQQSYETPLTFGGGTKVEIK | 3.6 OD | 3.62 OD | 3.25 OD
7 | 373_C08 (antibody, V domains shown) VH: EVQLLESGGGLVQPGGSLRLSCAASGFTFSSYSMNWVRQAPGKGLEWVANINYNGGYTSYADSVKGRFTISRDNSKNTLYLQMNSLRAEDTAVYYCARSANWHDTALDYWGQGTLVTVSS VL: DIQMTQSPSSLSASVGDRVTITCRASQSIISYLNWYQQKPGKAPKLLIYAASSLQSGVPSRFSGSGSGTDFTLTISSLQPEDFATYYCQQSYNNPLTFGGGTKVEIK | 3.05 OD | 3.19 OD | 3.19 OD
8 | 373_D01 (antibody, V domains shown) VH: EVQLLESGGGLVQPGGSLRLSCAASGFTFDSYSMNWVRQAPGKGLEWVSGINYNSGYKSYADSVKGRFTISRDNSKNTLYLQMNSLRAEDTAVYYCARSANWHDTHLDYWGQGTLVTVSS VL: DIQMTQSPSSLSASVGDRVTITCRASQSILSYVNWYQQKPGKAPKLVIYAATSRASGVPSRFSGSGSGTDFTLTISSLQPEDFATYYCQQSYDSPLTFGGGTKVEIK | 3.23 OD | 3.57 OD | 3.04 OD
9 | 373_A10 (antibody, V domains shown) VH: EVQLLESGGGLVQPGGSLRLSCAASGFTFSSYGMNWVRQAPGKGLEWVSGINYNSGYTSYADSVKGRFTISRDNSKNTLYLQMNSLRAEDTAVYYCARSANWHDTALDYWGQGTLVTVSS VL: DIQMTQSPSSLSASVGDRVTITCRASQSILSYLNWYQQKPGKAPKLVIYAATSRASGVPSRFSGSGSGTDFTLTISSLQPEDFATYYCQQSYDLPLTFGGGTKVEIK | 3.54 OD | 3.55 OD | 3.1 OD
10 | 373_D05 (antibody, V domains shown) VH: EVQLLESGGGLVQPGGSLRLSCAASGFTFSSYSMNWVRQAPGKGLEWVSGINYNSGYKGYADSVKGRFTISRDNSKNTLYLQMNSLRAEDTAVYYCARSANWHDTALDYWGQGTLVTVSS VL: DIQMTQSPSSLSASVGDRVTITCRASQSILSYLNWYQQKPGKAPKLVIYAATSRASGVPSRFSGSGSGTDFTLTISSLQPEDFATYYCQQSYDSPLTFGGGTKVEIK | 3.68 OD | 3.73 OD | 3.25 OD
11 | 373_C04 (antibody, V domains shown) VH: EVQLLESGGGLVQPGGSLRLSCAASGFTFSSYSMNWVRQAPGKGLEWVANINYNSGYTGYADSVKGRFTISRDNSKNTLYLQMNSLRAEDTAVYYCARSANWHDTALDYWGQGTLVTVSS VL: DIQMTQSPSSLSASVGDRVTITCRASQSIISYVNWYQQKPGKAPKLVIYAVTSRASGVPSRFSGSGSGTDFTLTISSLQPEDFATYYCQQSYNSPLTFGGGTKVEIK | 3.36 OD | 3.5 OD | 3.2 OD
12 | 373_D10 (antibody, V domains shown) VH: EVQLLESGGGLVQPGGSLRLSCAASGFTFDSYSMNWVRQAPGKGLEWVSNINYNSGYKGYADSVKGRFTISRDNSKNTLYLQMNSLRAEDTAVYYCARSANWHDTALDYWGQGTLVTVSS VL: DIQMTQSPSSLSASVGDRVTITCRASQSILSYVNWYQQKPGKAPKLLIYAATSRASGVPSRFSGSGSGTDFTLTISSLQPEDFATYYCQQSYDLPLTFGGGTKVEIK | 3.61 OD | 3.61 OD | 3.11 OD
13 | 373_B06 (antibody, V domains shown) VH: EVQLLESGGGLVQPGGSLRLSCAASGFTFSDYSMNWVRQAPGKGLEWVAGINYNGGYTGYADSVKGRFTISRDNSKNTLYLQMNSLRAEDTAVYYCARSANWHDTALDYWGQGTLVTVSS VL: DIQMTQSPSSLSASVGDRVTITCRASQSILTYVNWYQQKPGKAPKLVIYAATSRHSGVPSRFSGSGSGTDFTLTISSLQPEDFATYYCQQSYESPLTFGGGTKVEIK | 3.44 OD | 3.43 OD | 3.24 OD
14 | 373_C11 (antibody, V domains shown) VH: EVQLLESGGGLVQPGGSLRLSCAASGFTFSSYSMNWVRQAPGKGLEWVSGINYNSGYTGYADSVKGRFTISRDNSKNTLYLQMNSLRAEDTAVYYCARSANWHDTALDYWGQGTLVTVSS VL: DIQMTQSPSSLSASVGDRVTITCRASQSILTYVNWYQQKPGKAPKLVIYAVTSRASGVPSRFSGSGSGTDFTLTISSLQPEDFATYYCQQSYETPLTFGGGTKVEIK | 3.49 OD | 3.47 OD | 3.17 OD
15 | 373_B10 (antibody, V domains shown) VH: EVQLLESGGGLVQPGGSLRLSCAASGFTFDSYGMNWVRQAPGKGLEWVSNINYNGGYTSYADSVKGRFTISRDNSKNTLYLQMNSLRAEDTAVYYCARSANWHDTALDYWGQGTLVTVSS VL: DIQMTQSPSSLSASVGDRVTITCRASQSILSYLNWYQQKPGKAPKLLIYAATSRASGVPSRFSGSGSGTDFTLTISSLQPEDFATYYCQQSYDLPLTFGGGTKVEIK | 3.65 OD | 3.6 OD | 3.15 OD
16 | 373_C02 (antibody, V domains shown) VH: EVQLLESGGGLVQPGGSLRLSCAASGFTFDDYSMNWVRQAPGKGLEWVSGINYNSGYKGYADSVKGRFTISRDNSKNTLYLQMNSLRAEDTAVYYCARSANWHDTALDYWGQGTLVTVSS VL: DIQMTQSPSSLSASVGDRVTITCRASQSILSYVNWYQQKPGKAPKLLIYAATSRASGVPSRFSGSGSGTDFTLTISSLQPEDFATYYCQQSYNTPLTFGGGTKVEIK | 3.45 OD | 3.47 OD | 3.15 OD
17 | 373_B12 (antibody, V domains shown) VH: EVQLLESGGGLVQPGGSLRLSCAASGFTFDSYGMNWVRQAPGKGLEWVSSINYNSGYTSYADSVKGRFTISRDNSKNTLYLQMNSLRAEDTAVYYCARSANWHDTALDYWGQGTLVTVSS VL: DIQMTQSPSSLSASVGDRVTITCRASQSIVSYVNWYQQKPGKAPKLLIYAATSRASGVPSRFSGSGSGTDFTLTISSLQPEDFATYYCQQSYDSPLTFGGGTKVEIK | 3.12 OD | 3.08 OD | 3.27 OD
18 | 373_E01 (antibody, V domains shown) VH: EVQLLESGGGLVQPGGSLRLSCAASGFTFSSYGMNWVRQAPGKGLEWVSGINYNGGYKGYADSVKGRFTISRDNSKNTLYLQMNSLRAEDTAVYYCARSANWHDTALDYWGQGTLVTVSS VL: DIQMTQSPSSLSASVGDRVTITCRASQSIVSYVNWYQQKPGKAPKLLIYAATSRHSGVPSRFSGSGSGTDFTLTISSLQPEDFATYYCQQSYNNPLTFGGGTKVEIK | 2.35 OD | 2.56 OD | 2.99 OD
19 | 373_E05 (antibody, V domains shown) VH: EVQLLESGGGLVQPGGSLRLSCAASGFTFDSYGMNWVRQAPGKGLEWVSNINYNGGYTSYADSVKGRFTISRDNSKNTLYLQMNSLRAEDTAVYYCARSANWHDTALDYWGQGTLVTVSS VL: DIQMTQSPSSLSASVGDRVTITCRASQSILSYVNWYQQKPGKAPKLLIYAVTSRASGVPSRFSGSGSGTDFTLTISSLQPEDFATYYCQQSYDLPLTFGGGTKVEIK | 3.54 OD | 3.59 OD | 3.24 OD
